{"source": "patent US20220249679A1", "about": "“BI-SPECIFIC BINDING AGENTS TARGETING SYNDECAN-1 AND FIBROBLAST GROWTH FACTOR RECEPTOR” (Mitsubishi Tanabe Pharma Corporation, priority 2018, published 2022)", "key": {"Human CD138 His (human) [1]": {"target": "Human CD138 His (human) (UniProt P18827)", "sequence (P18827 23-254 limits assumed)": "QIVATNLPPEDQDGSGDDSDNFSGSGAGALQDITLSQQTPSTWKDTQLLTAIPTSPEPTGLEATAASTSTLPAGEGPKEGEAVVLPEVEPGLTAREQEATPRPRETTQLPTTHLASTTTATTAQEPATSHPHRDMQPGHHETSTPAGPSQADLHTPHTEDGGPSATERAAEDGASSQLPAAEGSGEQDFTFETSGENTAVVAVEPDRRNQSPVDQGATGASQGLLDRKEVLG", "assay": "SPR, summary table"}, "Human CD138 His (human) [2]": {"target": "Human CD138 His (human) (UniProt P18827)", "assay": "SPR (BioRad Proteon), CD138 His immobilized, bivalent analyte fit"}}, "note": "Values joined by “and” are separate entries in the source; they are usually repeats but may differ in a detail not shown here. Equal values may be shown once.", "data": [{"substance": "mBT062 (antibody)", "values": [{"measurement": "Kd", "setting": "Human CD138 His (human) [1]", "result": 2, "unit": "nM"}, {"measurement": "Kd", "setting": "Human CD138 His (human) [2]", "result": "1.95 nM and 2 nM"}, {"measurement": "koff", "setting": "Human CD138 His (human) [2]", "result": 0.000666, "unit": "s⁻¹"}, {"measurement": "kon", "setting": "Human CD138 His (human) [2]", "result": 342000, "unit": "M⁻¹ s⁻¹"}]}]}
